Results as given in article PMC10897435.

T1: ACADVL (mouse), P50544
T1 chain: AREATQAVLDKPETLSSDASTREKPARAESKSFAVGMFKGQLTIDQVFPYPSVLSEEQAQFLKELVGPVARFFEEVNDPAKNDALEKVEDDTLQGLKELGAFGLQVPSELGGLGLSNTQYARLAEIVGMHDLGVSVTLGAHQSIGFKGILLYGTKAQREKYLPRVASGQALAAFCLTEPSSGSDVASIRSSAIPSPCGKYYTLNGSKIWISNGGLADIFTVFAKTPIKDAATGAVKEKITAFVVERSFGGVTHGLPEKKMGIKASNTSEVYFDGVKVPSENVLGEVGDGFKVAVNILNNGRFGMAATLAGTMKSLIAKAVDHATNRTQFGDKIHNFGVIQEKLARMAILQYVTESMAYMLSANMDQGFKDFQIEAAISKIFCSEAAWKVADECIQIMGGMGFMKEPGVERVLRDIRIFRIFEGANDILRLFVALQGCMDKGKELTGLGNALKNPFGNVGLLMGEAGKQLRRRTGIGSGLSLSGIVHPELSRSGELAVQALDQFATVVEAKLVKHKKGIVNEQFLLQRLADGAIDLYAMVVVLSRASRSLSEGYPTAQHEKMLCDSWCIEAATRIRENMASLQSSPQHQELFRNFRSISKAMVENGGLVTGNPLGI

B1: ACADVL, P50544 42-656 (natural protein)
chain: T1 chain

Tests used:
[1] = target: complex I from ndufs4-/- mouse (heart, kidney) (mouse) (UniProt Q91YT0); assay: cryo-EM structure; complex I purified whole from ndufs4-/- mouse heart, cross-linked twice with BS3 (0.25 mM during solubilisation, 2.5 mM before the grids), 0.05% DDM, PEGylated gold grids; focused classification into three classes
Chain of UniProt Q91YT0 (Q91YT0 whole entry, looked up, one chain of several): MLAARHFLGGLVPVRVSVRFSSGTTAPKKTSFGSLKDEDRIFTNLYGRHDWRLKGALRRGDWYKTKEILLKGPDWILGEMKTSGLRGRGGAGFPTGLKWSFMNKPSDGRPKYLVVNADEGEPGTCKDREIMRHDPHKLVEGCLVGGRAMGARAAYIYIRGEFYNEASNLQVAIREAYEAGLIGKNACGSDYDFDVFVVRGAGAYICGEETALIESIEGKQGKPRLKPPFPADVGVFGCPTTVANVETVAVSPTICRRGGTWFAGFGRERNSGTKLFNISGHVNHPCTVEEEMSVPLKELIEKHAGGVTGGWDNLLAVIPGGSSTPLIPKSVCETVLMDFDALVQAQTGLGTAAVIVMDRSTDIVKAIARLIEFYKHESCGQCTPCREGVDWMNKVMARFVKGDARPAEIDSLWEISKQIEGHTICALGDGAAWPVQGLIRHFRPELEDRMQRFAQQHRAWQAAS

[2] = target: T1, ACADVL (mouse), P50544; assay: as above; details: remark: other sources report otherwise

Row | Molecule | percent of the complex I particles that contain it [1] | stoichiometry N [2]
1 | assembly factor NDUFAF2 (natural protein) | 14% | –
2 | B1 | – | 2
